# According to patent US5780221A, “Identification of enantiomeric ligands” (Whitehead Institute for Biomedical Research, priority 1996, dated 1998):
# Square brackets hold non-standard residues; d marks the D form. Ends that are not written are not given here.
# B1: 69.1: D-vasopressin aptamer, deletion derivative of 96.4 (nucleic acid)
# chain: TCTAACGTGAATGATAGACGTTACGTGTCTACACTATGTCGAGTTGCTGTGTGCCGATGAACGTGGGAT
# modifications: chemistry not given here
# B2: 96.4: D-vasopressin aptamer, ssDNA 96-mer (nucleic acid)
# chain: TCTAACGTGAATGATAGACGTTACGTGTCTACACTATGTCGAGTTGCTGTGTGCCGATGAACGTGGGATTAGAGCGTGTTAACTTATTCGACCAAA
# modifications: DNA, backbone not given here
# notes: D-vasopressin aptamer, ssDNA 96-mer
# B3: 96.2: D-vasopressin aptamer, ssDNA 96-mer (nucleic acid)
# chain: TCTAACGTGAATGATAGACGGCGAATCCCCAATGCGAAGCAGTGGTTTTGCAGTCGAGTTGCTGTGTGCCGATGAGCGTTAACTTATTCGACCAAA
# modifications: DNA, backbone not given here
# notes: as for B2
# What was measured:
# (L)-SH3 = target: T1, (L)-SH3 (Gallus gallus, UniProt P00523); experiment: Retention of bacterially expressed (L)-SH3 on peptide affinity column; assay type: binding; conditions: residues 81-140 of chicken c-Src
# T1 construct: E. coli BL21(DE3) pLysS, pMMHb TrpLE-His9 fusion, cleaved with CNBr
# Procedure: The L- and D-enantiomers of the chicken c-SRC domain were prepared by bacterial expression and chemical synthesis, respectively. The biotinylated, synthetic, 60-amino acid D-SH3 domain was refolded and purified by affinity chromatography, with a D-amino acid version of a known peptide ligand for the SH3 domain (Yu, H., et al., Cell, 76:933 (1994)).
# The all D amino acid SH3 domain, sequence […] S-COOH-terminus (SEQ ID No: 1), residues 81-140 of chicken c-SRC, was synthesized on HMP resin (ABI/Perkin Elmer) with an ABI 431A peptide synthesizer and ABI fastmoc cycles (Fmoc chemistry with HBTU activation and capping with acetic anhydride). Protected D-amino acids were obtained from Bachem California., Bachem Bioscience, Advanced Chemtech, and Novabiochem. For D-Ile and D-Thr, the side chain enantiomers were used, in which the chirality of the side chain is also inverted relative to naturally occurring L-Thr and L-Ile. After completion of the synthesis, the NH2 -terminus of the peptide was modified with NHS-LC-biotin II (Pierce). After cleavage, the peptide was lyophilized, dissolved in 6 M guanidine HCl, pH 6.0, and dialyzed against 100 mM NaHPO4 and 100 mM NaCl, pH 6.0, with the use of dialysis tubing with a molecular cutoff of 3,500 daltons (D) (Spectra/Por). […]
# [1] = target: T2, lectin concanavalin A (Con A) (Canavalia ensiformis, UniProt P02866); experiment: Con A screen of the phage library; assay type: binding; conditions: after 3 rounds
# T2 construct: mature circularly permuted chain
# Procedure: The library was made by ligation of a random PCR product into Sfi I-cut Fuse 5 vector. After ligation the reaction mixture was extracted with phenol and chloroform, ethanol-precipitated and taken up in 10 mM Tris/1 m mM EDTA (pH 8.0). The ligation product was subsequently transferred into electrocompetent MC1061 cells (Biorad) using a Bio-Rad E. coli pulser and 0.1 cm cuvettes. After non-restrictive growth for 1 hr aliquots of transformed cells were plated on tetracycline-containing plates to determine the efficiency of transformation, yielding an initial library of 3.6×108 transformants. The transformation mixture was subsequently diluted to a volume of 400 ml LB and 20 μg/ml tetracycline, and grown for an additional 14 hrs. A phage stock was prepared by two successive polyethylene glycol (PEG) precipitations of the culture supernatant as described. The phage stock was finally resuspended in tris buffered saline/NaN3 and titered by infection of K91-kan cells (A21), yielding a total of 2.8×10^11 transforming units. The randomness of the inserts was confirmed by sequencing of individual clones. 4×10^10 transforming units were subsequently used to infect K91-kan cells to generate an amplified library. After 18 hrs phage were purified by three repetitive PEG precipitations yielding 10 ml of the amplified phage library (1.2-10^12 transforming units/ml) in TBS/NaN3. […]
# (D)-Src SH3 domain [2] = target: T3, (D)-Src SH3 domain (Gallus gallus, UniProt P00523); experiment: Screening (selection rounds) of the phage library with the (D)-SH3 domain; assay type: binding, chicken; conditions: for Number of Isolates, high stringency: 4 rounds, 2 fold less (D)-Src SH3, 1 hr phage incubation, washes 10' in rounds 2-4
# (D)-Src SH3 domain [3] = target: T3, (D)-Src SH3 domain; experiment: as above; assay type: binding, chicken; conditions: for Number of Isolates, low stringency: 4 rounds, 16 hrs phage incubation, washes 3', 5', 10' in rounds 2-4; for isolates after four rounds of selection: 29 clones sequenced after four rounds
# Source text: The all D amino acid SH3 domain, sequence […] S-COOH-terminus (SEQ ID No: 1), residues 81-140 of chicken c-SRC, was synthesized on HMP resin (ABI/Perkin Elmer) with an ABI 431A peptide synthesizer and ABI fastmoc cycles (Fmoc chemistry with HBTU activation and capping with acetic anhydride). Protected D-amino acids were obtained from Bachem California., Bachem Bioscience, Advanced Chemtech, and Novabiochem. For D-Ile and D-Thr, the side chain enantiomers were used, in which the chirality of the side chain is also inverted relative to naturally occurring L-Thr and L-Ile. After completion of the synthesis, the NH2 -terminus of the peptide was modified with NHS-LC-biotin II (Pierce). After cleavage, the peptide was lyophilized, dissolved in 6 M guanidine HCl, pH 6.0, and dialyzed against 100 mM NaHPO4 and 100 mM NaCl, pH 6.0, with the use of dialysis tubing with a molecular cutoff of 3,500 daltons (D) (Spectra/Por). After dialysis the material was spun briefly to remove insoluble debris, and the supernatant was subsequently dialyzed against 5% acetic acid and lyophilized. The peptide was dissolved at a concentration of 3.3 mg/ml in Tris-buffered saline (50 mM Tris, pH 7.5, and 150 mM NaCl) containing 1 mM biotin. The full biotinylated 60 amino acid (D)-SH3 domain length product was refolded and purified by affinity chromatography on an all-(D) version of a known substrate for the Src SH3 domain (D)-[…] (SEQ ID NO:2), Yu, H., et al., Cell, 76:933 (1994)), that was biotinylated and immobilized on a streptavidin-agarose column (Pierce). This peptide is a derivative of an all (L)-peptide shown to bind to the all (L)-SH3 domain (Yu, H., et al., Cell,76:933-945 (1994)), with an NH2 -terminal YGG added to facilitate concentration determination (H. Edelhoch, Biochemistry, 6:1948 (1967)). The L-peptide with the same NH2 -terminal YGG served as a control ligand in the experiments.
# Single wells of a flatbottom 96 well high binding E.I.A./R.I.A. plate (Costar) were coated overnight with 10 μg streptavidin (Pierce) in 100 μl 100 mM NaHCO3 at 4° C. After a single wash with water, wells were incubated with 100 μl (10.7 μg) of biotinylated (D)-SH3 for 1 hr. at 20° C., blocked for 2 hrs with 30 mg/ml dialyzed bovine serum albumin (BSA) in 100 mM NaHCO3, and again incubated with 100 μl ([…]) of biotinylated (D)-SH3 for 1 hr. Unliganded streptavidin was blocked for 30 minutes by the addition of 8 μl 5 mM biotin in tris-buffered saline (TBS). Wells were subsequently washed 5 times with phosphate buffered saline (PBS) and 0.1% Tween-20, and incubated overnight with 50 μl of the phage stock in TBS/NaN3 and 50 μl of TBS, 0.1% Tween-20, 1 mg/ml BSA and 0.05% NaN3. Wells were subsequently washed by six additions of 200 μl of TBS, 0.1% Tween-20 and 1 mg/ml BSA with increasing incubation times in the later rounds of the selection procedure. (D)-SH3 bound phage particles were subsequently eluted by the addition of 100 μl D-SH3 ligand peptide (715 μM), sequence D-[…]-amide (SEQ ID No: 2), for 15 minutes at 4° C., at a final concentration of 700 to 1000 μM peptide. Acid elution of phages in this screen gives no detectable preferential binding to D-SH3 coated wells after four rounds of selection. The eluate was subsequently used to infect K91-kan cells. Briefly 100 μl eluate was mixed with 100 μl K91 Terrific Broth cells (prepared as described) an incubated for 20 minutes at room temperature. The mixture was subsequently transferred into an Erlenmeyer flask containing 20 ml LB/0.2 μg/ml tetracycline. After 1 hr incubation while shaking at 37° C., tetracycline was added to a final concentration of 20 μg/ml, appropriate dilutions were plated on tetracycline-containing plates ([…]) to determine the titer of the eluate and the culture was incubated at 37° C. for 12-16 hrs. Phage were isolated from the supernatant by two PEG precipitations and the resulting phage stock was used for titering to determine the yield, and for the subsequent round of selection. […]
# L-SH3 domain [4] = target: T4, L-SH3 domain (Gallus gallus, UniProt P00523); experiment: ELISA and NMR binding check of D-amino acid version of background sequence; parameters: species or system chicken; conditions: as judged by ELISA and NMR studies
# T4 construct: Residues 81 to 140 of chicken c-SRC were cloned; modified TrpLE leader (Met to Leu, Cys to Ala) (N, cleaved yes); His9 within the C-terminal region of the TrpLE leader (N, cleaved yes); made in house; host or cells: Escherichia coli BL21(DE3) pLysS, plasmid pMMHb-SRC SH3
# L-SH3 domain [5] = target: T4, L-SH3 domain; experiment: Screening of the phage library with the L-SH3 domain; assay type: binding, chicken
# Procedure: Phage display with the L-SH3 domain was also assessed. When the (L)-SH3 domain is used to screen a phage library (A12) for interacting sequences the poly-proline sequences that have been observed by others Rickles, R. J., et al., EMBO J., 13:5598 (1994); Sparks, A. B., J. Biol. Chem., 39:23853 (1994); Cheadle, C., et al., Ibid, 39:24034 (1994) are isolated.
# The sequences of these peptides have features consistent with those described for class I and class II ligands of the SH3 domain ((Yu, H., et al., Cell, 76:933 (1994); Rickles, R. J. et al., EMBO J., 13:5598 (1994; Sparks, A. B., et al., J. Biol. Chem., 269:23853 (1994); Cheadle, C., et al., ibid., p. 24034)).
# [6] = tested on: synthetic D-vasopressin (DVP); experiment: Affinity chromatography on D-vasopressin (DVP) resin, in vitro selection of ssDNAs; assay type: binding; conditions: for binding to DVP: affinity chromatography, positive ssDNA
# Source text: In the first step toward generating an antagonist of the peptide hormone L-vasopressin, an in vitro selection was used to isolate single-stranded DNAs (ssDNAs) that bind synthetic D-vasopressin (DVP). A starting pool of 10^16 different 96-mers was synthesized on a DNA synthesizer. Each pool molecule contained a central region with 60 random-sequence positions that was flanked by two 18-nt defined regions. Molecules within this starting pool that bind DVP were enriched by affinity chromatography. The affinity resin was prepared by coupling biotinylated DVP to streptavidin agarose. The ssDNA pool was radiolabeled, denatured, renatured in a physiological buffer and passed over this resin. […] Eluted pool was amplified by PCR using a negative-strand "primer-terminator", that is, an oligonucleotide bearing a central segment of non-nucleotide material that blocks further extension of the positive strand (Williams, K. P. and Bartel, D. P., Nucleic Acids Res., 23:4220-4221 (1995)). Such PCR results in a substantial size difference between the two product strands, facilitating gel-purification of the positivestrand ssDNA pool. This combination of affinity chromatography and PCR constituted one cycle of selection amplification.
# After thirteen iterations of the selectionamplification cycle the pool was cloned. […] Positive ssDNA of each sequence binds DVP and both have potential to form very similar secondary structures.
molecule,measurement,setting,value
"(D)-YGGRELPPLPRF ([dY]GG[dR][dE][dL][dP][dP][dL][dP][dR][dF]; also: biotinylated, site not given here) [all-(D) version of a known substrate for the Src SH3 domain]",retention of bacterially expressed (L)-SH3 on peptide column,(L)-SH3,not on the (D)-enantiomer
AS W R Y N Y A F M R Y SA (ASWRYNYAFMRYSA),"number in parentheses after sequence, Con A screen",[1],1
CLMGLRLGLLPC,sequences revealed after fifth round of selection,(D)-Src SH3 domain [2]; fifth round with neutravidin as a matrix,only sequences of the fdSRC-2-type
same,"Number of Isolates, low stringency",(D)-Src SH3 domain [3],4
CSRASWRGLLFC,"Number of Isolates, high stringency",(D)-Src SH3 domain [2],1
CAYGFKLGLIKC [clone has alanine to arginine substitution directly amino terminal to the insert],"Number of Isolates, low stringency",(D)-Src SH3 domain [3],1
D-amino acid version of this sequence: D-amino acid version of CKRFVWRGQALC (SEQ ID No: 13) ([dC][dK][dR][dF][dV][dW][dR]G[dQ][dA][dL][dC]; cysteine pairing not given here),binding to the L-SH3 domain,L-SH3 domain [4],fails to bind to the L-SH3 domain
CLSGLRLGLVPC,"Number of Isolates, low stringency",(D)-Src SH3 domain [3],2
SRMSPLVPLRNS,isolates after four rounds of selection with the L-SH3 domain,L-SH3 domain [5],one
CLARSRLPAIPS,isolates after four rounds of selection with the L-SH3 domain,L-SH3 domain [5],nine
CWYLGYWPGQEC,"Number of Isolates, low stringency",(D)-Src SH3 domain [3],12
same,isolates after four rounds of selection,(D)-Src SH3 domain [3],12 isolates
CKRFVWRGQALC,"Number of Isolates, high stringency",(D)-Src SH3 domain [2],14
same,"Number of Isolates, low stringency",(D)-Src SH3 domain [3],10
same,isolates after four rounds of selection,(D)-Src SH3 domain [3],10 isolates
AS M W M Y P Y P W G V SA (ASMWMYPYPWGVSA),"number in parentheses after sequence, Con A screen",[1],9
B1,elution from the DVP resin by L-vasopressin,"[6]; DVP resin, L-vasopressin",not eluted from the DVP resin by L-vasopressin
same,binding to DVP,[6],appears to bind DVP better than does the parent sequence
B2,binding to DVP,[6],binds DVP
B3,binding to DVP,[6],binds DVP
